The subject of data set [1] is Immunoglobulin E (IgE), human myeloma (human). Briefly: cited. Conditions: 10 mM Tris-HCl pH 9.0, no added salt in CE-LIF/NECEEM; temperature not stated; cited from earlier work.
Data set [2] shares this test system. Description: NECEEM (CE-LIF). The conditions noted are these: 25 nM DNA and 25 nM IgE, 10 mM Tris-HCl pH 9.0, no added salt in CE-LIF/NECEEM, temperature not stated.

The term Kd denotes the constant that tells how readily two partners part at equilibrium. “GACTACCCGGGTATCTAATCCTGAAACATAGCATATTTACTTATGTCGCCTTGCCGGTTCTGCTGCCGCCCGTAGG [FITC-IgE-Apt (published IgE aptamer)]”: the Kd in data set [1] is 23 nM.
Regarding “GACTACCCGGGTATCTAATCCGACCATTTTTCGTCTCCTTTGTACGAGCAGTGTGCTCGACCTGCCGCCCGTAGG [S2]”, the dissociation constant Kd in data set [2] (alternative from both peaks, not adopted) was 34.6 nM; in data set [2] (alternative from sharp peak, not adopted), 28.4 nM; in data set [2] (from broad peak (value adopted by authors)), 1.55 nM.
Consider “GACTACCCGGGTATCTAATCCGCGTATGGTCATGGATGTGCATACACCCCGCCTATCAGAACTGCTGCCGCCCGTAGG [S1]”, for which the dissociation constant (Kd) in data set [2] turned out to be 0.83 nM.

These data come from PMC9505737.
